Data from patent US20240254248A1 (JIANGSU HENGRUI MEDICINE, published 2024).
Where two headings read alike, the source gives them in different places.

Legend:
human CD40 (hCD40) [1] = target: T1, human CD40 (hCD40) (human, UniProt P25942 21-193); assay: ELISA blocking of hCD40/hCD40L binding
[2] = target: T2, CD40 on HEK293-CD40 cells; assay: binding to HEK293-CD40 cells
T2 construct: whole, on cells

[3] = target: T2, CD40 on HEK293-CD40 cells; assay: binding to HEK293-CD40 cells; remark: listed apart in the source
human CD40 (hCD40) [4] = target: T1, human CD40 (hCD40); assay: ELISA blocking of hCD40/hCD40L binding; remark: listed apart in the source

T2 sequence (P25942 21-277): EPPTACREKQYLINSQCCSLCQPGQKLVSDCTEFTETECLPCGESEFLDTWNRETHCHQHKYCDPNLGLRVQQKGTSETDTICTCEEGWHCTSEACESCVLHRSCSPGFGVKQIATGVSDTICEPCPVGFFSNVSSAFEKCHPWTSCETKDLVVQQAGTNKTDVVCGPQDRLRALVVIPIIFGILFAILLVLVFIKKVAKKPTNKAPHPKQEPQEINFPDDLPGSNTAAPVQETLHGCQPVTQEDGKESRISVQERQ
T1 sequence (P25942 21-193 limits assumed): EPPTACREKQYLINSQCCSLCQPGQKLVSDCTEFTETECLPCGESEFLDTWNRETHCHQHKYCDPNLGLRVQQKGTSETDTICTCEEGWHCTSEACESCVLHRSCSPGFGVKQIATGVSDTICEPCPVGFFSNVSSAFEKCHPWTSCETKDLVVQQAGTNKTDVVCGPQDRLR

Binder | IC50 (human CD40 (hCD40) [1]) [µg/mL] | EC50 [2] [µg/mL] | EC50 [3] [µg/mL] | IC50 (human CD40 (hCD40) [4]) [µg/mL]
humanized antibody hu9E5 (H1c heavy chain and L1a light chain) (antibody, human IgG1, kappa, V domains shown, also called Hu9E5-25) VH: QVQLVQSGAEVKKPGASVKVSCKASGYILTTYWITWVRQAPGQGLEWMGDIHPGSGSTKYNEKFKSRVTLTVDTSISTAYMELSRLRSEDTAVYYCARRDYWGQGTTVTVSS VL: DIVMTQSPLSLPVTPGEPASISCRSSQNIVNSQGNTYLEWYLQKPGQSPQLLIYKVTNRFSGVPDRFSGSGSGTDFTLKISRVEAEDVGVYYCFQASLVPWTFGGGTKVEIKR | 0.308 | 0.14 |  | 
human-murine chimeric antibody 9E5-C (antibody, IgG1, V domains shown, also called 9E5 chimeric antibody) VH: QVQLQQPGADLVKPGASVKMSCKASGYILTTYWITWVKQRPGQGLEWIGDIHPGSGSTKYNEKFKSKATLTVDTSSSTAYMQLTRLSSEDSAVYYCARRDYWGQGTTLTVSS VL: DVLMTQSPLSLPVSLGDQASISCRSSQNIVNSQGNTYLEWYLQKPGESPKLLIYKVTNRFSGVPDRFSGSGSGTDFTLKISRVEAEDLGVYYCFQASLVPWTFGGGTKLEIK |  |  | 0.0333 | 0.122
